The subject of data set [1] is mouse B cells stimulated to produce IgA. The data set can be described thus: IgA production by cultured, stimulated mouse splenic B cells (ELISA of supernatants, flow cytometry). The format is cell-based. Particulars: FIG. 8, C57BL6 spleen B cells cultured 5 days with stimuli and a percentage of supernatant, vs Control SN. The text has this:
A polypeptide of the present invention having immunoregulatory activity inhibits IgA production by B cells in vitro. Whether a polypeptide has immuno-modulatory activity may be determined by in vitro assays. An example of an in vitro assay is described in Example 1. The assay uses B cells, which in one embodiment may be a primary cell obtained from an animal, such as a mouse or human, or in another embodiment may be a B cell line. When obtained from an animal, B cells may be obtained from lymphoid tissues such as spleen, tonsil, and lymph node. […]
Single cell suspensions were generated from the indicated tissues and were pre-incubated with hybridoma supernatant containing Fc receptor blocking antibody. […] Data were analyzed using FlowJo software (TreeStar).
Serum, saliva and bronchoalveolar lavage fluid were collected from 10-14 week old FDC-SP-deficient mice, FDC-SP transgenic mice and strain, age and sex-matched controls. […] Total antibodies levels were determined by coating with anti-mouse IgM or IgA (Jackson ImmunoResearch Laboratories) and NP-specific antibodies levels were determined by coating plates with NP20-BSA (Biosearch Technologies). […]
(In an ELISA, binding on a coated surface is turned into a signal by an enzyme label.)

A further data set has as its system B lymphoma cells. Particulars: secreted FDC-SP; cited from earlier work.
For the next data set, the system named is T lymphoma cells. Conditions: secreted FDC-SP; cited from earlier work.
Data set [2] is described as follows: Toxicity observation in FDC-SP transgenic mice. The format is in vivo. Conditions: transgenic mice expressing increased levels of FDC-SP polypeptide. The text has this: FDC-SP transgenic CD1 mice (i.e., mice constitutively expressing FDC-SP in lymphoid tissues) were generated as described (Al-Alwan et al., 2007, J. Immunol., 178:7859-7867). All experimental animals were housed at the Central Animal Care Facility (University of Manitoba, Winnipeg, MB) in compliance with the guidelines established by the Canadian Council on Animal Care.

The source of these data is patent US10407473B2, “Methods for treating disorders that involve immunoglobulin A” (UNIVERSITY OF MANITOBA, priority 2011, dated 2019).

B1: FDC-SP SN: supernatant of L cells transfected with FDC-SP expression vector, containing recombinant FDC-SP (protein, UniProt Q8NFU4 18-85, looked up)
Follicular dendritic cell …: FPVSQDQEREKRSISDSDELASGFFVFPYPYPFRPLPPIPFPRFPWFRRNFPIPIPESAPTTPLPSEK
modifications: in L cell culture supernatant
Take B1: the “IgA production in vitro” value in data set [1] was “suppressed”.

B2: FDC-SP: secreted immuno-modulatory polypeptide expressed by activated follicular dendritic cells (protein, UniProt Q8NFU4 18-85, looked up)
Follicular dendritic cell …: B1 Follicular dendritic cell …
Turning to B2, the “binding to the surface of B lymphoma cells” value in the data set on B lymphoma cells is listed as “can bind”. For the same molecule, the “binding to the surface of T lymphoma cells” value in the data set on T lymphoma cells was “not”. In addition, the “toxicity associated with the polypeptide” value in data set [2] is given as “no evidence of toxicity”.
